In the Human Domainome abundance scans (Beltran et al. 2025):
± gives the uncertainty stated by the source.

B1: Ras GTPase-activating protein 1, residues 281 to 341; numbered along this chain, P20936 (parent)
chain: RRRVRAILPYTKVPDTDEISFLKGDMFIVHNELEDGWMWVTNLRTDEQGLIVEDLVEEVGR

Variants of: B1
Assay: abundance fitness (aPCA) (normalised: wild type 0, dead -1); higher = more abundant; growth selection in yeast, the domain comes from the species named
Conditions: Homo sapiens

Point of comparison: RRRVRAILPYTKVPDCDEISFLKGDMFIVHNELEDGWMWVTNLRTDEQGLIVEDLVEEVGR [T16C], abundance fitness -0.38 ± 0.027. Against it:
- RRRVRAILPYTKVLDTDEISFLKGDMFIVHNELEDGWMWVTNLRTDEQGLIVEDLVEEVGR [P14L] — higher, -0.188 ± 0.032
- RRRVRAILPYTKVVDTDEISFLKGDMFIVHNELEDGWMWVTNLRTDEQGLIVEDLVEEVGR [P14V] — higher, -0.101 ± 0.027
- RRRVRAILPYTKVSDTDEISFLKGDMFIVHNELEDGWMWVTNLRTDEQGLIVEDLVEEVGR [P14S] — higher, -0.085 ± 0.025
- RRRVRAILPYTKVEDTDEISFLKGDMFIVHNELEDGWMWVTNLRTDEQGLIVEDLVEEVGR [P14E] — higher, -0.06 ± 0.066
- RRRVRAILPYTKVNDTDEISFLKGDMFIVHNELEDGWMWVTNLRTDEQGLIVEDLVEEVGR [P14N] — higher, -0.075 ± 0.03
- RRRVRAILPYTKVRDTDEISFLKGDMFIVHNELEDGWMWVTNLRTDEQGLIVEDLVEEVGR [P14R] — higher, -0.132 ± 0.03
- RRRVRAILPYTKVDDTDEISFLKGDMFIVHNELEDGWMWVTNLRTDEQGLIVEDLVEEVGR [P14D] — higher, -0.023 ± 0.028
- RRRVRAILPYTKVKDTDEISFLKGDMFIVHNELEDGWMWVTNLRTDEQGLIVEDLVEEVGR [P14K] — higher, -0.011 ± 0.061
- RRRVRAILPYTKVTDTDEISFLKGDMFIVHNELEDGWMWVTNLRTDEQGLIVEDLVEEVGR [P14T] — higher, -0.076 ± 0.034
- RRRVRAILPYTKVMDTDEISFLKGDMFIVHNELEDGWMWVTNLRTDEQGLIVEDLVEEVGR [P14M] — higher, -0.045 ± 0.063
- RRRVRAILPYTKVADTDEISFLKGDMFIVHNELEDGWMWVTNLRTDEQGLIVEDLVEEVGR [P14A] — higher, -0.027 ± 0.03
- RRRVRAILPYTKVIDTDEISFLKGDMFIVHNELEDGWMWVTNLRTDEQGLIVEDLVEEVGR [P14I] — higher, -0.124 ± 0.029
- RRRVRAILPYTKVQDTDEISFLKGDMFIVHNELEDGWMWVTNLRTDEQGLIVEDLVEEVGR [P14Q] — higher, -0.055 ± 0.074
- RRRVRAILPYTKVFDTDEISFLKGDMFIVHNELEDGWMWVTNLRTDEQGLIVEDLVEEVGR [P14F] — within error, -0.348 ± 0.031
- RRRVRAILPYTKVHDTDEISFLKGDMFIVHNELEDGWMWVTNLRTDEQGLIVEDLVEEVGR [P14H] — higher, -0.146 ± 0.032
- RRRVRAILPYTKVGDTDEISFLKGDMFIVHNELEDGWMWVTNLRTDEQGLIVEDLVEEVGR [P14G] — higher, -0.089 ± 0.025
- RRRVRAILPYTKVCDTDEISFLKGDMFIVHNELEDGWMWVTNLRTDEQGLIVEDLVEEVGR [P14C] — higher, -0.142 ± 0.026
- RRRVRAILPYTKVYDTDEISFLKGDMFIVHNELEDGWMWVTNLRTDEQGLIVEDLVEEVGR [P14Y] — higher, -0.295 ± 0.033
- RRRVRAILPYTVVPDTDEISFLKGDMFIVHNELEDGWMWVTNLRTDEQGLIVEDLVEEVGR [K12V] — lower, -0.788 ± 0.047
- RRRVRAILPYTYVPDTDEISFLKGDMFIVHNELEDGWMWVTNLRTDEQGLIVEDLVEEVGR [K12Y] — lower, -0.824 ± 0.044
- RRRVRAILPYTTVPDTDEISFLKGDMFIVHNELEDGWMWVTNLRTDEQGLIVEDLVEEVGR [K12T] — lower, -0.7 ± 0.048
- RRRVRAILPYTSVPDTDEISFLKGDMFIVHNELEDGWMWVTNLRTDEQGLIVEDLVEEVGR [K12S] — higher, -0.077 ± 0.027
- RRRVRAILPYTKVPDYDEISFLKGDMFIVHNELEDGWMWVTNLRTDEQGLIVEDLVEEVGR [T16Y] — lower, -0.942 ± 0.06
- RRRVRAILPYTKVPDDDEISFLKGDMFIVHNELEDGWMWVTNLRTDEQGLIVEDLVEEVGR [T16D] — lower, -1.01 ± 0.068
- RRRVRAILPYTKVPDRDEISFLKGDMFIVHNELEDGWMWVTNLRTDEQGLIVEDLVEEVGR [T16R] — lower, -0.456 ± 0.029
- RRRVRAILPYTKVPDPDEISFLKGDMFIVHNELEDGWMWVTNLRTDEQGLIVEDLVEEVGR [T16P] — lower, -0.911 ± 0.074
- RRRVRAILPYTKVPDWDEISFLKGDMFIVHNELEDGWMWVTNLRTDEQGLIVEDLVEEVGR [T16W] — lower, -0.688 ± 0.061
- RRRVRAILPYTKVPDVDEISFLKGDMFIVHNELEDGWMWVTNLRTDEQGLIVEDLVEEVGR [T16V] — lower, -0.894 ± 0.047
- RRRVRAILPYTKVPDIDEISFLKGDMFIVHNELEDGWMWVTNLRTDEQGLIVEDLVEEVGR [T16I] — lower, -0.879 ± 0.059
- RRRVRAILPYTKVPDMDEISFLKGDMFIVHNELEDGWMWVTNLRTDEQGLIVEDLVEEVGR [T16M] — lower, -0.87 ± 0.12
- RRRVRAILPYTKVPDGDEISFLKGDMFIVHNELEDGWMWVTNLRTDEQGLIVEDLVEEVGR [T16G] — lower, -0.439 ± 0.027
- RRRVRAILPYTKVPDHDEISFLKGDMFIVHNELEDGWMWVTNLRTDEQGLIVEDLVEEVGR [T16H] — lower, -0.784 ± 0.047
- RRRVRAILPYTKVPDQDEISFLKGDMFIVHNELEDGWMWVTNLRTDEQGLIVEDLVEEVGR [T16Q] — lower, -1.03 ± 0.21
- RRRVRAILPYTKVPDLDEISFLKGDMFIVHNELEDGWMWVTNLRTDEQGLIVEDLVEEVGR [T16L] — lower, -0.973 ± 0.056
- RRRVRAILPYTKVPDFDEISFLKGDMFIVHNELEDGWMWVTNLRTDEQGLIVEDLVEEVGR [T16F] — lower, -0.752 ± 0.04
- RRRVRAILPYTKVPDNDEISFLKGDMFIVHNELEDGWMWVTNLRTDEQGLIVEDLVEEVGR [T16N] — lower, -0.605 ± 0.037
- RRRVRAILPYTKVPDSDEISFLKGDMFIVHNELEDGWMWVTNLRTDEQGLIVEDLVEEVGR [T16S] — higher, -0.031 ± 0.024
- RRRVRAILPYTKVPDADEISFLKGDMFIVHNELEDGWMWVTNLRTDEQGLIVEDLVEEVGR [T16A] — lower, -0.746 ± 0.053
- RRRVRAILPYTKVPDTHEISFLKGDMFIVHNELEDGWMWVTNLRTDEQGLIVEDLVEEVGR [D17H] — higher, -0.061 ± 0.03
- RRRVRAILPYTKVPDTMEISFLKGDMFIVHNELEDGWMWVTNLRTDEQGLIVEDLVEEVGR [D17M] — higher, -0.059 ± 0.044
- RRRVRAILPYTKVPDTCEISFLKGDMFIVHNELEDGWMWVTNLRTDEQGLIVEDLVEEVGR [D17C] — higher, -0.105 ± 0.03
- RRRVRAILPYTKVPDTEEISFLKGDMFIVHNELEDGWMWVTNLRTDEQGLIVEDLVEEVGR [D17E] — higher, -0.006 ± 0.053
